# Conditions: Homo sapiens; pH 7.4; 25 °C; GdnHCl; CD; KPi 50 mM; structure 1TIT
Substance,ddG of mutation (higher = less stable) [kcal/mol],denaturant m value [kcal/mol/M],denaturant midpoint (higher = more stable) [M],unfolding free energy [kcal/mol]
"Titin Y12685F, Q8WZ42",0.4,2.2,2.5,5.5
"Titin Y12685G, Q8WZ42",0.8,2.2,2.3,5.1
"Titin Y12685P, Q8WZ42",2.2,2.2,1.7,3.7
"Titin Y12685S, Q8WZ42",0.2,2.2,2.6,5.7
